B1: StBEL-11: BEL transcription factor from Solanum tuberosum, SEQ ID NO:4 (protein, listed as Solanum tuberosum)
chain: MTFRSSLPLDLREISTTNHQVGILSSSPLPSPGTNTNNINHTRGLGASSSFSISNGMILGSKYLKVAQDLLDEVVNVGKNIKLSDGLESGAKEKHKLDNELISLASDDVESSSQKNSGVELTTAQRQELQMKKAKLVSMLDEVDQRYRQYHHQMQMIATSFEQTTGIGSSKSYTQLALHTISKQFRCLKDAISGQIKDTSKTLGEEENIGGKIEGSKLKFVDHHLRQQRALQQLGMMQTNAWKPQRGLPERAVSVLRAWLFEHFLHPYPKDSDKIILAKQTGLTRSQVSNWFINARVRLWKPMVEEMYMEEVKKNNQEQNIEPNNNEIVGSKSSVPQEKLPISSNIIHNASPNDISTSTISTSPTGGGGSIPTQTVAGFSFIRSLNMENIDDQRNNKKARNEMQNCSTSTILSMEREIINKVVQDETIKSEKFNNTQTRECYSLMTPNYTMDDQFGTRFNNQNHEQLATTTTFHQGNGHVSLTLGLPPNSENQHNYIGLENHYNQPTHHPNISYENIDFQSGKRYATQLLQDFVS
B2: StBEL-30: BEL transcription factor from Solanum tuberosum, SEQ ID NO:14 (protein, listed as Solanum tuberosum)
chain: MATYFPSPNNQRDADQTFQYFRQSLPESYSEASNAPENMMVFMNYSSSGAYSDMLTGTSQQQHNCIDIPSIGATPFNTSQQEILSNLGGSQMGIQDFSSWRDSRNEMLADNVFQVAQNVQGQGLSLSLGSNIPSGIGISHVQSQNPNQGGGFNMSFGDGDNSQPKEQRNADYFPPDNPGRDLDAMKGYNSPYGTSSIARTIPSSKYLKAAQYLLDEVVSVRKAIKEQNSKKELTKDSRESDVDSKNISSDTPANGGSNPHESKNNQSELSPTEKQEVQNKLAKLLSMLDEIDRRYRQYYHQMQIVVSSFDVVAGEGAAKPYTALALQTISRHFRCLRDAICDQIRASRRSLGEQDASENSKAIGISRLRFVDHHIRQQRALQQLGMMQQHAWRPQRGLPESSVSVLRAWLFEHFLHPYPKDSDKIMLARQTGLTRSQVSNWFINARVRLWKPMVEEMYKEEAGDAKIDSNSSSDVAPRLATKDSKVEERGELHQNAASEFEQYNSGQILESKSNHEADVEMEGASNAETQSQSGMENQTGEPLPAMDNCTLFQDAFVQSNDRFSEFGSFGSGNVLPNGVSLTLGLQQGEGSNLPMSIETHVSYVPLRADDMYSTAPTTMVPETAEFNCLDSGNRQQPFWLLPSAT
B3: pAD5-9: StBEL-05 deletion construct, aa 1 through 315 (protein)
chain: MNPNNYMQGYTTSDTQQQQQLLFLNSSPAASNALCHANIQHAPLQQQHFVGVPLPAVSLHDQINHHGLLQRMWNNQDQSQQVIVPSSTGVSATSCGGITTDLASQLAFQRPIPTPQHRQQQQQQGGLSLSLSPQLQQQISFNNNISSSSPRTNNVTIRGTLDGSSSNMVLGSKYLKAAQELLDEVVNIVGKSIKGDDQKKDNSMNKESMPLASDVNTNSSGGGESSSRQKNEVAVELTTAQRQELQMKKAKLLAMLEEVEQRYRQYHHQMQIIVLSFEQVAGIGSAKSYTQLALHAISKQFRCLKDAIAEQVKAT
modifications: left off: large carriers
B4: StBEL-14: BEL transcription factor from Solanum tuberosum, SEQ ID NO:8 (protein, listed as Solanum tuberosum)
chain: MVNHQLQNFETNPEMYNLSSTTSSMDQMIGFPPNNNNPHHVLWKGNFPNKINGVDDDDHGPSSSKNIISEQFYQHGSHENMLTTTTTHHDDHQGSWHHDNNRTLLVDDPSMRCVFPCEGNERPSHGLSLSLCSSNPSSIGLQSFELRHQDLQQGLIHDGFLGKSTNIQQGYFHHHHQVRDSKYLGPAQELLSEFCSLGIKKNNDHSSSKVLLKQHESTASTSKKQLLQSLDLLELQKRKTKLLQMLEEVDRRYKHYCDQMKAVVSSFEAVAGNGAATVYSALASRAMSRHFRCLRDGIVAQIKATKMAMGEKDSTSTLIPGSTRGETPRLRLLDQTLRQQKAFQQMNMMETHPWRPQRGLPERSVSVLRAWLFEHFLHPYPSDVDKHILARQTGLSRSQVSNWFINARVRLWKPMVEEMYLEETKEEENVGSPDGSKALIDDMTIHQSHIDHHQADQKPNLVRIDSECISSIINHQPHEKNDQNYGVIRGGDQSFGAIELDFSTNIAYGTSGGDHHHHGGGVSLTLGLQQHGGSGGSSMGLTTFSSQPSHNQSSLFYPRDDDQVQYSSLLDSENQNLPYRNLDGGTTSS
B5: StBEL-22: BEL transcription factor from Solanum tuberosum, SEQ ID NO:10 (protein, listed as Solanum tuberosum)
chain: TSVYETAGLLSEMFNFQTTSTAATELLQNQLSNNYRHPNQQPHHQPPTREWFGNRQEIVVGGSLQVTFGDTKDDVNAKVLLSNRDSVTDYYQRQHNQVPSINTAESMQLFLMNPQPSSPSQSTPSTLHQGFSSPVGGHFSQFMCGGASTSSNPIGGVNVIDQGQGLSLSLSSTLQHLEASKVEDLRMNSGGEMLFFNQESQNHHNIGFGSSLGLVNVLRNSKYVKATQELLEEFCCVGKGQLFKKINKVSRNNNTSTSPIINPSGSNNNNSSSSKAIIPPNLSTAERLDHQRRKVKLLSMLDEVEKRYNHYCEQMQMVVNSFDLVMGFGAAVPYTALAQKAMSRHFKCLKDGVAAQLKKTCEALGEKDASSSSGLTKGETPRLKVLEQSLRQQRAFQQMGMMEQEAWRPQRGLPERSVNILRAWLFEHFLHPYPSDADKHLLARQTGLSRNQVANWFINARVRLWKPMVEEMYQREVNEDDVDDMQENQNSTNTQIPTPNIIITTNSNITETKSAATATIASDKKPQINVSEIDPSIVAMNTHYSSSMPTQLTNFPTIQDESDHILYRRSGAEYGTTNMASNSEIGSNMITFGTTTASDVSLTLGLRHAGNLPENTHFSG
B6: StBEL-13: BEL transcription factor from Solanum tuberosum, SEQ ID NO:6 (protein, listed as Solanum tuberosum)
chain: MVMGGGASSQQLGYAKNHTPNVAESMQLFLMNPQPRSPSPSPPNSTSSTLHMLLPNPSSTSTLQGFPNPAEGSFGQFITWGNGGASAATATHHLNAQNEIGGVNVVESQGLSLSLSSSLQHKAEELQMSGEAGGMMFFNQGGSSTSGQYRYKNLNMGGSGVSPNIHQVHVGYGSSLGVVNVLRNSKYAKAAQELLEEFCSVGRGKLKKTNNKAAANNPNTNPSGANNEASSKDVPTLSAADRIEHQRRKVKLLSMVDEVDRRYNHYCEQMQMVVNSFDLVMGFGTAVPYTALAQKAMSRHFRCLKDAIGAQLKQSCELLGEKDAGNSGLTKGETPRLKMLEQSLRQQRAFHQMGMMEQEAWRPQRGLPERSVNILRAWLFEHFLHPYPSDADKHLLARQTGLSRNQVSNWFINARVRLWKPMVEDMYQQEAKDEDGDGDEKSQSQNSGNNIIAQTPTPNSLTNTSSTNMTTTTAPTTTTALAAAETGTAATPITVTSSKRSQINATDSDPSLVAINSFSENQATFPTNIHDPDDCRRGNLSGDDGTTTHDHMGSTMIRFGTTAGDVSLTLGLRHAGNLPENTHFFG
B7: StBEL-29: BEL transcription factor from Solanum tuberosum, SEQ ID NO:12 (protein, listed as Solanum tuberosum)
chain: QGLSLSLSSSQQPGFGNFTAARELVSSPSGSASASGIQQQQQQQQSISSVPLSSKYMKAAQELLDEVVNVGKSMKSTNSTDVVVNNDVKKSKNMGDMDGQLDGVGADKDGAPTTELSTGERQEIQMKKAKLVNMLDEVEQRYRHYHHQMQSVIHWLEQAAGIGSAKTYTALALQTISKQFRCLKDAIIGQIRSASQTLGEEDSLGGKIEGSRLKFVDNQLRQQRALQQLGMIQHNAWRPQRGLPERAVSVLRAWLFEHFLHPYPKDSDKMMLAKQTGLTRSQVSNWFINARVRLWKPMVEEMYLEEIKEHEQNGLGQEKTSKLGEQNEDSTTSRSIATQDKSPGSDSQNKSFVSKQDNHLPQHNPASPMPDVQRHFHTPIGMTIRNQSAGFNLIGSPEIESINITQGSPKKPRNNEMLHSPNSIPSINMDVKPNEEQMSMKFGDDRQDRDGFSLMGGPMNFMGGFGAYPIGEIARFSTEQFSAPYSTSGTVSLTLGLPHNENLSMSATHHSFLPIPTQNIQIGSEPNHEFGSLNTPTSAHSTSSVYETFNIQNRKRFAAPLLPDFVA

POTH1, sequence (as listed by the source): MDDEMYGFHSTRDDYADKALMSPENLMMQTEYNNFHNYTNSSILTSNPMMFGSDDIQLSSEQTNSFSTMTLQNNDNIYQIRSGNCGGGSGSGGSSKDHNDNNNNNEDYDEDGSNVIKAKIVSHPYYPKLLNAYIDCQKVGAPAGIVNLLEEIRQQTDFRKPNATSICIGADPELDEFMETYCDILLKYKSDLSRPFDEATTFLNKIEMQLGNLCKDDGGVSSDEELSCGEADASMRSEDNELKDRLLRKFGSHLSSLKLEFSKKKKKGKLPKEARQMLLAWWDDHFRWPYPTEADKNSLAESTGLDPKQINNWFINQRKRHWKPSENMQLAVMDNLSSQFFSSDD

For this assay, the system named is POTH1. The assay can be described thus: Yeast two-hybrid interaction with POTH1 (nutritional selection, beta-galactosidase). The format is cell-based, potato. The settings on record: yeast strain AH109, nutritional markers and lacZ. The source says:
The Matchmaker two-hybrid system (Clontech, CA) was used for the yeast two-hybrid screen. Yeast transformation and plasmid rescue into DH5-a E. coli cells were according to the manufacturer's instructions. Full-length POTH1 was cloned into the pBridge (Clontech, CA) vector and used as bait to screen the potato (S. tuberosum ‘Desireé’) stolon cDNA library in pAD-GAL4-2.1 (Stratagene, Calif.). Positive interactions were confirmed by cotransforming yeast strain AH109 with each purified pAD plasmid and pBridge: POTH1 and plating on -leucine/-tryptophan (transformation control) and -leucine/-tryptophan/-histidine/-adenine (selection) nutrient medium. Induction of the AH109 reporter gene, lacZ, was measured with a yeast β-galactosidase assay kit (Pierce Chemicals). β-galactosidase activity (FIG. 9B) was determined from a known density of yeast cells and calculated as 1000×OD420/time of color reaction (minutes)×volume of yeast culture (ml)×OD600.
The StBEL-05 deletion constructs were amplified by PCR, then cloned into the vector, pGAD, in-frame with the GAL4 activation domain. POTH1 deletion constructs were amplified by PCR, and cloned into pBridge (Clontech) in-frame with the GAL4 binding domain. Sequencing of selected cDNAs and constructs was performed at the Iowa State University DNA Facility. For deletion analysis, modified constructs of POTH1 were cloned into the pBridge vector for fusion with the DNA-binding domain of GAL4 (FIG. 10A). For StBEL-05, constructs were cloned into the pGAD vector for fusion with the activating domain of GAL4 (FIG. 10B). Deletion constructs were made from both the amino and carboxy termini. These mutants were then tested for interaction in the yeast two-hybrid system by cotransforming into yeast strain AH109 with the corresponding full-length partner (StBEL-05 in pGAL4 or POTH1 in pBridge). All constructs were sequenced to verify that they were in-frame. Positive interactions were verified for lacZ induction by using a β-galactosidase assay (Pierce Chemical Company). For POTH1, seven deletion constructs were tested (FIG. 10A). For the BEL TFs, a fusion construct of StBEL-05 (653 aa of StBEL-05 sequence) and nine deletion constructs were tested (FIG. 10B).
B1: the “interaction with POTH1” value is “showed selective interaction”.
Next, B2: “showed selective interaction”; B3: “interaction with POTH1”; B4: “showed selective interaction”.
For B5, the “interaction with POTH1” value is given as “showed selective interaction”.
In the case of B6, the “interaction with POTH1” value is “showed selective interaction”.
B7: the “interaction with POTH1” value was “showed selective interaction”.

Source of the values: patent US7579150B1, “Mobile RNA acts as a signal to regulate plant growth and development” (Iowa State University Research Foundation, Inc., priority 2004, dated 2009).
